This passage reports EC50 results from patent US20240218057A1 (ROCKEFELLER UNIVERSITY, published 2024).

Substitutions are numbered along the chain they refer to.

To fix the notation:
B1: C1044 (antibody, V domains shown)
VH: QVQLQESGPGLVKPSQTLSLTCTVSGGSISSGNYYLTWIRQPAGKGLEWIGHIYTSGSTNYNPSLKSRVTISVDTSMNQFSLKLSSVTAADTAVYYCARDIPPTWYFDLWGRGTLVTVSS
VL: SYELTQPPSVSVAPGKTARITCGGNNIGSKNVHWYQQKPGQAPVLVVYDDSDRPSGIPERFSGSNSGNTATLTISRVEAGDEAGYYCQVWDSTSDHLFWVFGGGTKLTVL
B2: C1045 (antibody, V domains shown)
VH: B1 VH with G27D, L36W, T37S, T59P, N62K, V73L, M77K, S85T, V94M, P103S
VL: B1 VL with T21P, N25T, N26D, V46A, N68S, G84D, T93S, S94G, H96R, F98S
B3: C1049 (antibody, V domains shown)
VH: EVQLVQSGAEVKKPGESLKISCKSSGYSFISHWIGWVRQMPGKGLEWMGIIWPGDSDTRYSPSFQGQVTISVDKSITTVYLQWSSLKAADTAMYYCARRGSSWEVDYWGQGTLVTVSS
VL: not shown
B4: C1063 (antibody, V domains shown)
VH: EVQLVQSGAEVKKPGESLKISCKGYGNSFNNYWIAWVRQMPVKGLEWMGVINPGDSDTRYSPSFQGQVTISVDKSISTAYLQWSSLKASDTAMYYCARTWSPAAVAFFDSWGQGTLVTVS
VL: NFMLTQPHSVSESPGKTVTISCTRSSDSIGSNYVQWYQQRPGSSPTIVIYEDSQRPSGVPHRFSGSFDSSSNSASLTISGLKTEDEADYYCQSWDSGNLVFGGGTKLTVL
B5: C1055 (antibody, V domains shown)
VH: QVQLVESGGGVVQPGRSLRLSCAASGFTFSTYGMNWVRQAPGKGLEWVALILYDGSDKYYADSVKSRFTISRDNSRNTLYLQMTSLRAEDTAVYYCAKALSSTYYYDASGPDAFDIWGQGTMVTVSS
VL: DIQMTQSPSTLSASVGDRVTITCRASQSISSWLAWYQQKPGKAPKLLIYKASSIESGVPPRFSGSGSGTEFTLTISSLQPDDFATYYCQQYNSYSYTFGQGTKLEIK
B6: C1046 (antibody, V domains shown)
VH: EVQLVQSGAEVKKPGESLKISCKGSGYSFTSYWIGWVRQMPGKGLEWMGIIYPGDSDTRYSPSFQGQVTISADKSISTAYLQWSSLKASDTAMYYCARMVTSGTYYYDNSGYSSSGPFDYWGQGTLVTVSS
VL: DIQLTQSPSSLSASVGDRVTITCRASQGISSALAWYQQKPGKAPKLLIYDASSLESGVPSRFSGSGSGTDFTLTISSLQPEDFATYYCQQFNNFGPGTKVDIK
B7: C1058 (antibody, V domains shown)
VH: EVQLVESGGGLVQPGGSLRLSCAASGIIVSSNYMNWVRQVPGKGLEWVSVLYSGGSTFYADSVRGRFTISRDNSKNTLFLQMNSLRPEDTAVYYCARDFREGAFDIWGQGTMVTV
VL: DIQLTQSPSFLSASVGDRVTITCRASQGISSYLAWYQQKPGKAPNLLIYAASTLQSGVPSRFSGSGSGTDFTLTISSLQPEDFATYYCQQLNSYSPLFGQGTRLEIK
B8: C1059 (antibody, V domains shown)
VH: EVQLVESGGGLVQPGGSLRLSCAASGVTVSYNYMHWVRQAPGKGLEWVSVFFPGGSIFYADSVKGRFSISRDNSHNTLYLQMNNLRPEDTAVYYCARDFREGAIDLWGQGTMVTVSS
VL: B7 VL with G16E, N45K, A50G, D70E, F83S, S95P
B9: C1053 (antibody, V domains shown)
VH: EVQLLESGGGLVQPGGSLRLSCAASGFTFSSYAMNWVRQAPGKGLEWVSAISGSGGGTYYADSVKGRFTISRDNSKNTLYLQMDSLRAEDTAVYYCAKDVPIEQQLVPTFDYWGQGALVTVSS
VL: DIQMTQSPSSLSASVGDRVTITCRASQSISRYLNWYQQKPGKAPKLLIYGASSLQSGVPSRFSGSGSGTDFTLTISSLQPEDFATYWCQQSYSTLSITFGQGTRLEIK
B10: C1054 (antibody, V domains shown)
VH: EVQLLESGGGLVQPGGSLRLSCVVSGFTFSSYAMNWVRQAPGKGLEWVSVIGGSGDGRYYADSVKGRFTISRDNSKNTLYLQMNSLRGDDTAVYYCARDVPVEQQLVPTFDYWGQGTLVTVSS
VL: B9 VL with G50A, D70E, W87Y
B11: C1061 (antibody, V domains shown)
VH: EVQLVESGGGLVQPGGSLRLSCAASGFTFSRYDMHWVRQGTGKGLEWVSAIGTSGDTYYPDSVKGRFTISRENAKNSLYLQMNSLRAGDTAVYYCARGGLQTTTWLFDYWGQGTLVTVSS
VL: B9 VL with G50A, S67A, T85I, W87Y, T94N, L95P, S96P
B12: C1062 (antibody, V domains shown)
VH: B11 VH with R31N, G40T, S54A, D61G, I69M, Y109N
VL: B9 VL with S28T, G50A, W87Y, S93T, T94M, L95P, S96P
B13: C1038 (antibody, V domains shown)
VH: QVQLVQSGAEVKKPGASVKVSCKASGYTFTSYYMHWVRQAPGQGLEWMGIINPSGGSTRYAQKFQGRVTMTRDTSTSTVYMELSSLRSEDTAVYYCAREGVGGTSYFDYWGQGTLVTVSS
VL: SYELTQPPSVSVAPGKTARITCGGNNIGSKSVHWYQQKPGQAPVLVVYDDSDRPSGIPERFSGSNSGNTATLTISRVEAGDEADYYCQVWDSSSDPYVFGTGTKVTVL
B14: C1039 (antibody, V domains shown)
VH: QVQLVQSGAEVKKPGASVKVSCKASGYTFTSHYMHWVRQAPGQGLEWMGIINPRTRYAQMFQGRVSMNRDTSTSTVYMELSSLTSEDTAVYYCAREGLGATAYFDYWGQGTLVTVSS
VL: B13 VL with R19G, N25S, N26D, T106S
B15: C1035 (antibody, V domains shown)
VH: EVQLVESGGGLIQPGGSLRLSCAASGLTVSRNYMNWVRQAPGKGLEWVSVMYSGGSTFYADSVKGRFTISRDNSKNTLYLQMNSLRAEDTAVYYCARESYGMDVWGQGTTVTVSS
VL: EIVLTQSPGTLSLSPGERATLSCRASQSFSSTYLAWYQQKPGQAPRLLIYGASSRATGIPDRFSGSGSGTDFTLTISRLEPEDFAVYYCQQYVTSPWTFGQGTKVEIK
B16: C1036 (antibody, V domains shown)
VH: B15 VH with T28I, A40V, S53A, N73D, A87P
VL: B15 VL with F29I
B17: C1047 (antibody, V domains shown)
VH: EVQLVQSGAEVKKPGESLKISCKGSGYSFISYWIVWVRQMPGKGLEWIGIIYPGDSDTIYSPSFQGQVTLSADKSISTAYLQWSSLKASDTAIYYCAKMVTSGTSYYETRGYASSGPFDNWGQGTLVTVSS
VL: DIQLTQSPSSLSASVGDRVTITCRASQGISSALAWYQQKPGKAPKLLIYDASSLESGVPSRFSGSGSGTDFTLTISSLQPEDFATYYCQQSDNFGPGTKVDI
B18: C1048 (antibody, V domains shown)
VH: EVQLVQSGAEVKKPGESLKISCKVSGYSFISHWIGWVRQMPGKGLEWMGIIYPGDSDTRYSPSFQGQVTISADKSISTAYLQWSSLKASDTAMYYCARRGASWELDYWGQGTLVTV
VL: QSVLTQPPSASGTPGQRVTISCSGSSSNIGSNPVSWYQQLPGPAPQLLIYGNDQRPSGVPDRFSGSKSGTSASLAISGLQSEDEADYYCAAWDDSLNGYVFGTGTKVTVL
B19: C1060 (antibody, V domains shown)
VH: EVQLVESGGDLVQPGGSLRLSCAASEIIVSRNYMNWVRQAPGKGLEWVSIIYSGGSTFYGDSVKGRFTISRDSSKNTLYLQMHGLRVEDTAIYYCARSYGDYYIDYWGQGTLVTVSS
VL: DIQMTQSPSSVSASVGDRVTITCRTSQSISTSLAWYQQKPGKAPKLLIYAASSLQRGVPSRFSGTGSGTDFTLTISSLQPEDFATYYCQQSSSSPPLFTFGPGTKVDIK
B20: C1043 (antibody, V domains shown)
VH: EVQLVESGGGLVQPGRSLRLSCAASGFIFDNYAMHWVRQAPGKGLEWVSGISWNSDSIGYADSVKGRFTISRDNAKNSLYLQMSSLRAEDTALYYCAKDLLGNYYYYTLDVWGQGTTVTVSS
VL: QSALTQPASVSGSPGQSITISCTGTSSDIGGNNYVSWYQQHPGKAPRLMIFDVSYRPSGVSNRFSGSKSGNTASLTISGLQAEDEADYYCISYTTSSTLGVFGGGTKLTVL
B21: C1050 (antibody, V domains shown)
VH: EVQLVESGGGLVQPGRSLRLSCAASGFTFDDYGMHWVRQAPGKGLEWVSGISWNGDSIGYADSVKGRFTISRDNAKTSLYLQMNRLRAEDTALYYCAKAASRSTRIGGAFDIWGQGTMVTVSS
VL: QSALTQPASVSGSPGQSITISCTGTSSDVGGYNLVSWYQQHPGKAPKLMIYEGSKRPSGVSNRFSGSKSGNTASLTISGLQAEDEADYYCCSYAYSFTNVFGTGTKVTV
B22: C1051 (antibody, V domains shown)
VH: B21 VH with A23V, M34L, G55S, T69A, K76R
VL: B21 VL with H41Y, G53D, N62H, Y95F
B23: C1057 (antibody, V domains shown)
VH: QVQLVQSGAEVKKPGSSVKVSCKASGGTFTTYIISWVRQAPGQGLEWMGGISPMLGTANYAQKFQGGVTITADESTTTAYMEMSGLRSEDTAVYYCARAHMYCSDGSCYRQSGYFDSWGQGTLVTVSS
VL: QSALTQPRSVSGSPGQSVTITCTGTSSNVGGYKYVSWFQQHPGKAPKFLIYDVSERSSGVPDRFSGSKSGNTASLTISGLQAEDEADYYCCSYAGKYTVVFGGGTRLTV
B24: C1052 (antibody, V domains shown)
VH: QVQLVQSGAEVKKPGASVKVSCKVSGYTLSELSMHWVRQAPGEGLEWLGGFDPEDGETINAQKFQGRVTMTEDRSTDTAYMELSSLRSEDTAVYYCATRGRYCSSGNCYYHHWGQGTLVTVSS
VL: DIQMTQSPSTLSASVGDRVIITCRASQNIHNWLAWYQQKPGKAPKLLIYKASSLESGVPSRFSGSGSGTEFTLTISSLQPDDFATYFCQQYHSYSWTFGQGTKVEIK
B25: C1040 (antibody, V domains shown)
VH: QVQLVESGGGVVQPGRSLRLSCAASGFSFINYNMHWVRQAPGKGLEWVAVIWYDGSNKYYADSVKGRFTISRDNSKNTLYLQMNSLRVEDTAVYYCARDPAITEAEIDYWGQGTLVTVSS
VL: DVVMTQSPLSLPVTLGQAASISCRSSQSLVHSDGNTYLNWFQQRPGQSPRRLIYRVSNRDSGVPDRFSASGSGTDFTLKISRVEAEDVGVYYCMQGTHWPWTFGQGTKVEIK

This assay has as its target T1, SARS-COV-2 RBD (SARS-COV-2, UniProt P0DTC2 319-539).
T1 construct: also called WT RBD
Put plainly: ELISA, RBD coated on plate.
Take B1: the EC50 worked out at 3.22 ng/mL.

For the molecule B2, the EC50 worked out at 2.57 ng/mL.

Consider B3, for which the EC50 is 2.81 ng/mL.

As to B4, the EC50 was found to be 3.04 ng/mL.

Take B5: the EC50 worked out at 2.71 ng/mL.

For the molecule B6, a half-maximal effect (EC50) was put at 3.8 ng/mL.

Turning to B7, a half-maximal response (EC50) required 2.13 ng/mL.

In turn, B8 displayed an EC50 of 1.69 ng/mL.

Consider B9, for which the EC50 is 4.13 ng/mL.

B10 displayed an EC50 of 1.64 ng/mL.

In the case of B11, it took 2.26 ng/mL to reach a half-maximal effect (EC50).

As to B12, the EC50 was determined as 2.61 ng/mL.

With B13, a half-maximal effect (EC50) was put at 2.46 ng/mL.

As for B14, the EC50 stood at 2.61 ng/mL.

Molecule B15 came in with an EC50 of 2.05 ng/mL.

On to B16, for which the EC50 turned out to be 1.02 ng/mL.

For the molecule B17, the concentration giving a half-maximal response (EC50) is 2.46 ng/mL.

For the molecule B18, the EC50 turned out to be 2.41 ng/mL.

B19 returned an EC50 of 2.67 ng/mL.

The molecule B20 gave an EC50 of 2.77 ng/mL.

B21: the midpoint of the response, the EC50, lay at 2.78 ng/mL.

For the molecule B22, the response was half-maximal at 1.4 ng/mL (EC50).

B23 came in with an EC50 of 2.12 ng/mL.

As to B24, the midpoint of the response, the EC50, lay at 2.64 ng/mL.

In the case of B25, it took 2.08 ng/mL to reach a half-maximal effect (EC50).
